Test results as given in article doi:10.1101/2025.07.04.663185 (bioRxiv, 2025).

Molecular target: Cdc2-GFP (S. pombe, UniProt P04551 1-297)
Test: affinity purification with mass spectrometry

Cdc2-GFP, sequence (P04551 whole entry): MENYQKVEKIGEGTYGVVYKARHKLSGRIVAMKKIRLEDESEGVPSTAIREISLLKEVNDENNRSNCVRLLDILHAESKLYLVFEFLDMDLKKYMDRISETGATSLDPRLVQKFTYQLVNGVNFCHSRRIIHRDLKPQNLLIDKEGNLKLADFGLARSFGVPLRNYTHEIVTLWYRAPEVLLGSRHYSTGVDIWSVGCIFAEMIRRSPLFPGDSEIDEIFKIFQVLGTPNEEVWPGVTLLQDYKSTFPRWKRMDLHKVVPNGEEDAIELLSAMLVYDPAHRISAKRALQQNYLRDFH

B1: Wee1 (enzyme)
chain: MSSSSNTSSHRSYGLRRSQRSMNLNRATLLAPPTPSSLYDANNSTSSTSSQKPNTSFTSLFGPRKQTTSSPSFSHAAPLHPLSPPSFTHSQPQIQAQPVPRRPSLFDRPNLVSRSSSRLGDSPSLSPVAQVANPIHHTAPSPSDVRAFPIHKNASTGVKRSFFSSSMSNGAMSPPSHSPSPFLQSSQHIPPSTPAQKLRKKNNFDSFRISNSHISPFASGSFSPFATSSPNFLSTSTPAPPNSNNANPSTLFSSIPSSRHTTSNHFPSNSAQSSLFSPTARPLTARKLGFASSQTKSAVSNNHSRNSSKDASFMMKSFIPSNRSHPQTQQNESSLFSDNSMVNSSSNSFSLFPNATLPNPPSSELLTTPFQQIKPPSQVFMSTGLLSKQHRPRKNINFTPLPPSTPSKPSTFVRPHSSSTDSPPSPSTPSNTQTDSYFIQRENTPTNHNSIPTIQLEKSSMDFLRFDPPPSAVKTSHNYGLPFLSNQRCPATPTRNPFAFENTVSIHMDGRQPSPIKSRNNNQMSFAMEEEADVSQPSSSSFTLSFPSALTSSKVSSSTSHLLTRFRNVTLLGSGEFSEVFQVEDPVEKTLKYAVKKLKVKFSGPKERNRLLQEVSIQRALKGHDHIVELMDSWEHGGFLYMQVELCENGSLDRFLEEQGQLSRLDEFRVWKILVEVALGLQFIHHKNYVHLDLKPANVMITFEGTLKIGDFGMASVWPVPRGMEREGDCEYIAPEVLANHLYDKPADIFSLGITVFEAAANIVLPDNGQSWQKLRSGDLSDAPRLSSTDNGSSLTSSSRETPANSIIGQGGLDRVVEWMLSPEPRNRPTIDQILATDEVCWVEMRRKAGAIIYEGIHGSSSNPQGDQMMEDWQVNV
Question: For B1, which “fold increase in association with Cdc2, suc1^ts versus suc1+ cells” value is on record?
Answer: Its value is 2.5 fold.

B2: Cdc25 (enzyme)
chain: MDSPLSSLSFTNTLSGKRNVLRPAARELKLMSDRNANQELDFFFPKSKHIASTLVDPFGKTCSTASPASSLAADMSMNMHIDESPALPTPRRTLFRSLSCTVETPLANKTIVSPLPESPSNDALTESYFFRQPASKYSITQDSPRVSSTIAYSFKPKASIALNTTKSEATRSSLSSSSFDSYLRPNVSRSRSSGNAPPFLRSRSSSSYSINKKKGTSGGQATRHLTYALSRTCSQSSNTTSLLESCLTDDTDDFELMSDHEDTFTMGKVADLPESSVELVEDAASIQRPNSDFGACNDNSLDDLFQASPIKPIDMLPKINKDIAFPSLKVRSPSPMAFAMQEDAEYDEQDTPVLRRTQSMFLNSTRLGLFKSQDLVCVTPKQSTKESERFISSHVEDLSLPCFAVKEDSLKRITQETLLGLLDGKFKDIFDKCIIIDCRFEYEYLGGHISTAVNLNTKQAIVDAFLSKPLTHRVALVFHCEHSAHRAPHLALHFRNTDRRMNSHRYPFLYYPEVYILHGGYKSFYENHKNRCDPINYVPMNDASHVMTCTKAMNNFKRNATFMRTKSYTFGQSVLASPDVNDSPTAMHSLSTLRRF
Question: With B2 as the binder, how does the “fold increase in association with Cdc2, suc1^ts versus suc1+ cells” value read?
Answer: The value was 3 fold.
